Literature values in article PMC8671346.

Key:
[1] = molecular target: GM-CSF receptor (GMRα/βc) (Homo sapiens) (UniProt P15509)
[2] = molecular target: GM-CSF receptor alpha chain (GMRα) (Homo sapiens) (UniProt P15509)

Substance: GM-CSF (from UniProt P04141)
- Kd [1]: 0.1 nM
- Kd [2]: 5 nM
